The values below come from publication PMC5852647, “Structural basis of siRNA recognition by TRBP double‐stranded RNA binding domains”.

One data set addresses T1, TRBP dsRBD12 M100S (human, UniProt Q15633 16-158+=T+159-227, C73A;M100S;C196V;internal_change).
T1 sequence: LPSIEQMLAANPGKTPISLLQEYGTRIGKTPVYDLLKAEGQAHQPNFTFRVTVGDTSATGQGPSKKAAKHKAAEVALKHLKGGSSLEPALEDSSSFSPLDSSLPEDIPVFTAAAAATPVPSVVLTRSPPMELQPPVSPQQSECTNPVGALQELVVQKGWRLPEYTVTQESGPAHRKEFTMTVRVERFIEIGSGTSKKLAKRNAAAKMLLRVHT
As to the kind of experiment: single-molecule FRET; 25 mM KCl; two configurations; smFRET: 20 mM Tris-HCl pH 7.4, 125 mM KCl (affinity) or 25 mM KCl (orientation), 15 nM BSA, 0.001% Tween-20, 295 K; NMR buffer not in material. The note with it: protein: recombinant; tags: CF660R at C158; label: Cy3B at 3' end of EL86down; 19 bp, 3' overhang 2 nt (UU) on both strands.

The target of the next data set is T2, TRBP dsRBD12 M100C/C158S (human, UniProt Q15633 16-158+=T+159-227, C73A;M100C;C158S;C196V;internal_change).
T2 sequence: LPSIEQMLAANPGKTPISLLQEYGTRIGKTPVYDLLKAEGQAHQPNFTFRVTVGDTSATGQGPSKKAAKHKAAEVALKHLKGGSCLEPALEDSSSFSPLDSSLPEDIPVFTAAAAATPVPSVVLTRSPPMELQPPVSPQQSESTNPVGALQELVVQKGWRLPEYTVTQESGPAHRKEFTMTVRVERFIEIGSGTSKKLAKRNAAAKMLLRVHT
The data set is described as above. The note with it: protein: recombinant; tags: CF660R at C100; label: Cy3B at 3' end of EL86down; 19 bp, 3' overhang 2 nt (UU) on both strands.

Data set [1] deals with T3, TRBP dsRBD12 Cy3B-CF660R (doubly labeled) (human, UniProt Q15633 16-158+=T+159-227, C73A;M100C;C196V;internal_change).
T3 sequence: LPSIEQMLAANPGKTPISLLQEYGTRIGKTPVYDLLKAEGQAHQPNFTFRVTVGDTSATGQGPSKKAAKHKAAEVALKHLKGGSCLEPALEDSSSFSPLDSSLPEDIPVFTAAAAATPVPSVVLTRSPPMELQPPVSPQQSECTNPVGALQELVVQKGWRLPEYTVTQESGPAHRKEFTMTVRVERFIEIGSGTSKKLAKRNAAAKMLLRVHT
As to the kind of experiment: single-molecule FRET titration; 125 mM KCl, 20 mM Tris-HCl pH 7.4, 295 K; smFRET: 20 mM Tris-HCl pH 7.4, 125 mM KCl (affinity) or 25 mM KCl (orientation), 15 nM BSA, 0.001% Tween-20, 295 K; NMR buffer not in material. The following applies: protein: recombinant; tags: Cy3B and CF660R at C100 and C158; pET47b(+)-based vector; 19 bp, 3' overhang 2 nt (UU) on both strands.

What is called Kd is the concentration at which binding is half-saturated.

B1: EL86 siRNA, Cy3B-labeled (dsRNA)
RNA 1: UUAAUUAUCUAUUCCGUACUU
RNA 2: GUACGGAAUAGAUAAUUAAUU
modifications: 3' biotin on EL86up; 3' amino modifier on EL86down
Regarding B1, the binding result with TRBP dsRBD12 M100S and with TRBP dsRBD12 M100C/C158S was “binds” throughout.

B2: EL86 siRNA (dsRNA)
RNA 1: UUAAUUAUCUAUUCCGUACUU
RNA 2: GUACGGAAUAGAUAAUUAAUU
In the case of B2, in data set [1], the Kd was 0.21 ± 0.03 nM.
